Test results from patent US20150376261A1 (VIB VZW, published 2015).

What was measured:
[1] = target: T1, human mu-opioid receptor (hMor1) (human, UniProt P35372 6-360); assay: not described
T1 construct: This is the receptor moiety as it stands in the hMor1-34GS-Nb fusions, preceded by Flag and followed by the 3C site, the 34GS linker, a Nanobody and His6

[2] = target: T1, human mu-opioid receptor (hMor1); assay: cell-based or functional assay
β2AR365N = target: T2, β2AR365N (human, UniProt P07550 2-365); assay: not described
T2 construct: also called non-fused β2AR365N; human β2 adrenergic receptor Gly2 to Gly365, N187E

T1 sequence (P35372 6-360, tags or fused parts left off): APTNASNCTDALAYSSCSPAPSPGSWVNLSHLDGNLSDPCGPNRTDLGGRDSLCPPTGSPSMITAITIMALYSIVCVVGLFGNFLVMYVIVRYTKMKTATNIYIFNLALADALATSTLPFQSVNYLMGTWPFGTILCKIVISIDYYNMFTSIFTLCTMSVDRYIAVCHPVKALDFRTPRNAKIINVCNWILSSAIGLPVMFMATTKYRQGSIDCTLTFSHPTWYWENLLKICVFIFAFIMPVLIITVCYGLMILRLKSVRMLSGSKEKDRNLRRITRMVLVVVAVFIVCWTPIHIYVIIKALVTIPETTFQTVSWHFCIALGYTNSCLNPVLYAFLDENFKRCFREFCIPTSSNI

B1: Nb10 (VHH)
VHH: QVQLQESGGGLVQPGGSLRLSCAASGSFRSIVSMAWYRQAPGKQRELVASSNSGGSTNYADSVKGRFTISRDNAKNTVYLQMNSLKPEDTAVYWCNVQNRLPGFDAFSGRSIAETYWGQGTQVTVSS
notes: also called CA4910; irrelevant Single-domain antibody
binding result [1]: no binding

B2: Nb33 (VHH)
VHH: QVQLQESGGGLVRPGGSRRLSCVDSERTSYPMGWFRRAPGKEREFVASITWSGIDPTYADSVADRFTISRDVANNTLYLQMNSLKHEDTAVYYCAARAPVGQSSSPYDYDYWGQGTQVTVSS
IC50 ratio, Dmt1-Dalda: hMor1-34GS-Nb10 versus hMor1-34GS-Nb33 fusion ([3H]-diprenorphine competition, Sf9 membranes; Nb fused to the receptor) [2]: 36 ratio | IC50 ratio, KGOP01: hMor1-34GS-Nb10 versus hMor1-34GS-Nb33 fusion [2]: 20 ratio | IC50 ratio, naloxone: hMor1-34GS-Nb10 versus hMor1-34GS-Nb33 fusion [2]: 2 ratio

B3: Nb69 (VHH)
VHH: QVQLQESGGGLVQAGGSLRLSCTASGLTLSNYAMGWFRQAPGKEREFVAADTWNGNTYHQDSVKGRFTISRDNAKNTVYLQMNYLKPEDTAVYYCAARGSRRSAYYSSSDYTYRGQGTQVTVSS
notes: Described as specific for the rat muscarinic receptor M3; Used as the mock fusion partner and as an exogenously added control; also called CA5669; mock Single-domain antibody
binding result (β2AR365N): no binding
